From patent publication US6713276B2, “Modulation of Aβ levels by β-secretase BACE2” (Scios, Inc., priority 2000, dated 2004)

System: APP751sw processing in HEK293T cells
Test: pulse-chase / pulse-labeling and immunoprecipitation of APP CTFs, Aβ and p3 in HEK293T cells
Format: cell-based, human
Method: Forty eight hours post-transfection, HEK293T cells were labeled for 15 minutes with 200 μCi Promix L [^35S] in vitro cell labeling mix (Amersham) and chased for up to 90 minutes according to standard procedures. APP CTFs were immunoprecipitated with antibodies 369 (Cai et al., Science 259: 514-516 [1993]). For immunoprecipitations of Aβ and p3 from conditioned medium, HEK293T cells were labeled for 5 hours with 300 μCi Promix L [^35S] in vitro cell labeling mix (Amersham) 48 hours post-transfection. Aβ40 and Aβ42 as well as the corresponding p3 species were immunoprecipitated with monoclonal antibodies 1702.1 and 108.1, respectively (Higaki et al., J. Med. Chem. 42: 3889-3898 [1999]).
To analyze the metabolism of APP as a consequence of BACE or BACE2 overexpression we performed a parallel pulse-chase experiment (FIG. 2e). HEK293T cells transfected as above were pulse-labeled and chased for up to 90 minutes and APP and CTFs were immunoprecipitated. […] An alternative β-secretase related cleavage product (β′-CTF) was also formed consistent with previous reports (Vassar et al., Science [1999] ibid; Higaki et al., Neuron 14: 651-659 [1995]). Consistent with its β-secretase activity, BACE2 overexpression led to a significant initial increase in β-CTF levels compared to mock-transfected cells. […] In general, BACE2 might have increased the overall APP turnover. To determine whether BACE affected γ-secretase activity, we determined whether p3 could be formed. We transfected HEK293 cells as in FIG. 2e and labeled them for 5 hours with Promix L [^35S]. Aβ from conditioned medium was then precipitated with antibodies directed against the C-terminal residues of Aβ40 and Aβ42, respectively, that also recognize p3 (FIG. 2f). […] Taken together, BACE2 expression leads to alternative processing of APP that precludes Aβ formation.

[1] = HEK293 cells, labeled for 5 hours, conditioned medium

B1: BACE2: human aspartyl protease, close homolog of BACE (SEQ ID NO: 2), expressed from pcDNA3.1(−)/BACE2 in transfected cells (protein)
chain: MGALARALLLPLLAQWLLRAAPELAPAPFTLPLRVAAATNRVVAPTPGPGTPAERHADGLALALEPALASPAGAANFLAMVDNLQGDSGRGYYLEMLIGTPPQKLQILVDTGSSNFAVAGTPHSYIDTYFDTERSSTYRSKGFDVTVKYTQGSWTGFVGEDLVTIPKGFNTSFLVNIATIFESENFFLPGIKWNGILGLAYATLAKPSSSLETFFDSLVTQANIPNVFSMQMCGAGLPVAGSGTNGGSLVLGGIEPSLYKGDIWYTPIKEEWYYQIEILKLEIGGQSLNLDCREYNADKAIVDSGTTLLRLPQKVFDAVVEAVARASLIPEFSDGFWTGSQLACWTNSETPWSYFPKISIYLRDENSSRSFRITILPQLYIQPMMGAGLNYECYRFGISPSTNALVIGATVMEGFYVIFDRAQKRVGFAASPCAEIAGAAVSEISGPFSTEDVASNCVPAQSLSEPILWIVSYALMSVCGAILLVLIVLLLLPFRCQRRPRDPEVVNDESSLVRHRWK
APP CTF turnover (β-CTF, β′-CTF, α-CTF) (HEK293T, APP751sw, 15 min pulse, chase up to 90 minutes): strong accumulation of a cleavage product that based on size and gel migration corresponded to α-CTF | formation of Aβ40 and Aβ42 (immunoprecipitation) [1]: interfered with the formation of both Aβ40 and Aβ42 | p3 formation [1]: p3 levels were not significantly affected
